Test results: patent publication US20230174643A1

Experiments:
CD3 (human) = assay: cell-based or functional assay
Human DLL3 (human) = Human DLL3 (human) (UniProt Q9NYJ7); assay: cell-based or functional assay
Human DLL3 (human), sequence (Q9NYJ7 27-618 limits assumed): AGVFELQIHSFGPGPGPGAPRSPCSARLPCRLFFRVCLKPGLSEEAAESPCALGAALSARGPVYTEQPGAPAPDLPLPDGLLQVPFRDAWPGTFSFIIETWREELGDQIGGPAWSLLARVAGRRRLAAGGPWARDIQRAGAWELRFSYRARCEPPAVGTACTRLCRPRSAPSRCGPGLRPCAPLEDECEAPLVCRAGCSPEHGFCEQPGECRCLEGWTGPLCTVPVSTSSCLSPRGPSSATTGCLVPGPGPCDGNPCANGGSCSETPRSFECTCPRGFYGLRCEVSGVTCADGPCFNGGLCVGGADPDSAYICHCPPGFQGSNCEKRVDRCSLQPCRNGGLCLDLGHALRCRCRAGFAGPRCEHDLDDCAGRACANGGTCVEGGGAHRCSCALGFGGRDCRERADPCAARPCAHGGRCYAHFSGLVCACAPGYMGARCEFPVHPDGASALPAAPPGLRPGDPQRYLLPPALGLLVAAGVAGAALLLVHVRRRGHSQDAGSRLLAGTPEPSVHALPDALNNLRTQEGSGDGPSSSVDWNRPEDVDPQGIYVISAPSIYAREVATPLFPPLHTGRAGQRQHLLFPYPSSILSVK

AMG 757 (bispecific antibody)
EC90 of AMG 757-mediated CD69 upregulation (CD3 (human)): 4.6 ng/mL | EC50 of AMG 757-mediated cell killing in SHP-77 cells (Human DLL3 (human)): 2.8 ng/mL | EC90 of AMG 757-mediated cell killing in SHP-77 cells (Human DLL3 (human)): 5.7 ng/mL | in vitro EC90 for AMG 757-mediated cell killing (Human DLL3 (human)): 5.2 ng/mL
